This note sets out measurements from US20220144940A1 (VIELA BIO, published 2022).

Where “and” joins values, the source holds several entries; their conditions need not be identical. Equal entries are not always repeated.

Assay [1] has as its target T1, cynomolgus ILT7 (cynomolgus, UniProt P59901 24-499 (human entry)).
T1 construct: also called cyno ILT7; cynomolgus monkey ILT7
Kind of assay: FMAT cell binding assay, CHO-K1 cells expressing cynomolgus ILT7, IgG. From the text: (§1) This homogeneous assay assessed the binding of crude scFv supernatant samples or purified IgG to Chinese Hamster Ovary (CHO) cells expressing either human or cynomolgus ILT7 in a 384-well (Costar 3655) format. ScFv or Ab binding to cells was detected using a mouse anti-His/goat anti-mouse Alexafluor®-647 labelled antibody (Molecular Probes A21236) mix, or goat anti-human Alexafluor®-647 labelled antibody (Molecular Probes A21445) respectively. Plates were read on the Applied Biosystems Cellular Detection system 8200 reader. The Helium neon excitation laser was focused within 100 μm depth of the bottom of the well, scanning an area 1 mm². The cells settled at the bottom of the well, and upon laser excitation at 633 nm, those beads with fluorophore bound (where the local concentration of fluorophore is relatively high compared to unbound fluorophore) emitted a signal at 650-685 nm that was measured using photomultiplier tube-1 (PMT1). […] The presence of scFv or IgG samples binding to the cells at the bottom of the well caused an increase in Alexafluor-labeled detection antibody within the excitation depth. This was measured as an increase in fluorescence.
(§2) The cells used were CHO-Kl cells expressing either human or cynomolgus ILT7 that were cultured using standard tissue culture techniques. […]
(§3) Species cross-reactivity of anti-ILT7 antibodies was determined using FMAT binding assay. […]

The target of assay [2] is T2, HA-tagged human ILT7 on CT-550 cells (human, UniProt P59901 24-499).
T2 construct: whole, on cells; CT-550 cells: CT-125 cells (2B4 murine T-cell hybridoma with mouse FcεRIγ and NFAT-GFP reporter) transduced with HA-tagged human ILT7; also called human ILT7-expressing cells; not shown: HA tag
Kind of assay: flow cytometry on CT-550 cells expressing human ILT7, anti-human IgG DyLight 649 detection; mean of two experiments. The method, then:
(§4) Binding of anti-ILT7 variants and isotype controls on human and cynomolgus ILT7 was assessed by flow cytometry analysis using CT-550 and cynoILT7 CT-125 cells respectively. CT-125 cells were used as control. Cells were resuspended in Blocking Buffer (PBS supplemented with 10% FBS) at a concentration of 5 million cells per mL and transferred into a round-bottom 96-well plates (BD Falcon™ Clear Microtest Plate, BD Biosciences) at 100 μL per well. Anti-ILT7 variants and control antibodies were added onto the cells for 30 min at 4° C. on a plate shaker. Cells were washed three times with PBS and resuspended in Blocking Buffer (100 μL/well). Human IgG binding on cell surface was detected using a secondary anti-human IgG antibody conjugated to DyLight 649 (1 in 1000 dilution). Cells were incubated in the dark for 30 min at 4° C. on a plate shaker. Cells were washed three times with PBS and surface fluorescence was acquired using LSRII Flow Cytometry System and FACSDiva Software (both from BD Biosciences).
In order to determine the binding EC50 of ILT70019, ILT70028, ILT70052, ILT70076, ILT70080, ILT70083, ILT70089, ILT70100, ILT70137, ILT70142 and ILT70144 on cells expressing human ILT7, the candidates were screened for binding on CT-550 cells by flow cytometry. […]
Background: A flow cytometer gives signals particle by particle.

Assay [3] deals with T3, human ILT7 (human, UniProt P59901 24-499).
T3 construct: whole, on cells; also called LIRA4; LILRA4
Kind of assay: FMAT cell binding assay, CHO-K1 cells expressing human ILT7, IgG.
Source text: as §1, §2, §3

Assay [4] deals with T4, recombinant human ILT7 protein (human, UniProt P59901 24-446, limits assumed).
T4 construct: Soluble recombinant protein used in ProteOn and BIAcore SPR; also called rILT7; Soluble Recombinant Human ILT7
As to the kind of experiment: BIAcore SPR, IgG captured on chip, ILT7 protein as analyte, koff/kon. The method, then: (§5) BIAcore (surface plasmon resonance) was used to measure the kinetic rate (kₒₙ, koff) constants for the binding of afucosylated IgG₁ ILT70137 to human ILT7 protein using an IgG-capture assay format. The binding of each concentration of a two-fold dilution series of the ILT7 protein was recorded after first capturing IgG onto the sensor chip surface, followed by either the ILT7 protein or instrument buffer. In between each pair of injections, the IgG capture surface was regenerated. Individual association and dissociation rate constants were then calculated from the resulting binding curves using the Biaevaluation software available through the vendor's software employing a 1:1 fitting model, which included a term to correct for mass transport limited binding, should it be detected. […] The individual errors for kₒₙ and koff were low, and the overall fit to the data was good as judged by Chi2 values of ˜1% of the calculated Rₘₐₓ (maximum response).
In general terms: In SPR one partner is held on a chip, and binding of the other changes the refractive index at the surface.

Assay [5] has as its target T1, cynomolgus ILT7. As to the kind of experiment: cell-based or functional assay.
Assay [6] concerns the target T3, human ILT7. Kind of assay: cell-based or functional assay.
Assay [7] concerns the target T3, human ILT7. Kind of assay: flow cytometry (MFI) on cell line stably expressing human ILT7. The procedure:
(§6) Binding of afucosylated ILT70137 to ILT7 was determined using cell lines stably expressing human or cynomolgus monkey ILT7. The mean fluorescence intensity of cell-bound antibodies was assessed by flow cytometry. Cells were incubated with increasing concentrations of test antibody ranging from 0.004 to 333.3 nM for 30 minutes at 4° C. After incubation, cells were washed with cold PBS and incubated for 30 minutes at 4° C. with an anti-human-Alexa Fluor 647 antibody. Fluorescent intensity was then determined by FACS and EC₅₀ values were calculated using a non-linear fit equation in GraphPad Prism 6 software.

The target of assay [8] is T1, cynomolgus ILT7. Kind of assay: flow cytometry (MFI) on cell line stably expressing cynomolgus monkey ILT7. The method, then: as §6
The target in assay [9] is T4, recombinant human ILT7 protein. As to the kind of experiment: BIAcore SPR, IgG captured on chip, ILT7 protein as analyte, 1:1 model. The method, then:
as §5

Assay [10] addresses T1, cynomolgus ILT7. Kind of assay: flow cytometry on cynomolgus ILT7-expressing cells, right panel 'Cyno ILT7', table 'Ec50 (nM)'. The method, then:
as §4

Assay [11] has as its target T2, HA-tagged human ILT7 on CT-550 cells. Kind of assay: flow cytometry on human ILT7-expressing cells, left panel 'Human ILT7', table 'Ec50 (nM)'. The procedure: as §4
For assay [12], the target named is T1, cynomolgus ILT7. As to the kind of experiment: flow cytometry on cells expressing cynomolgus ILT7 (CT-125 cells). The method, then:
as §4
The resultant IgG1s were tested to confirm that the sequence changes incorporated into ILT70080 and ILT70083 and had not adversely impacted the binding of the parent antibody to cells expressing human ILT7 (CT-550 cells) or cynomolgus ILT7 (CT-125 cells). The variants were screened for binding by flow cytometry. […]

The target in assay [13] is T2, HA-tagged human ILT7 on CT-550 cells. As to the kind of experiment: cell-based or functional assay.
Assay [14] has as its target T1, cynomolgus ILT7. As to the kind of experiment: flow cytometry on CynoILT7 CT-125 cells. The procedure:
as §4
(§7) In order to determine the binding EC₅₀ of the variants on cells expressing cynomolgus ILT7, the antibodies were screened for binding on CynoILT7 CT-125 cells by flow cytometry. […] The graph in FIG. 3 represents the mean results from two independent experiments, and the table in FIG. 3 show the average EC₅₀.

For assay [15], the target named is T2, HA-tagged human ILT7 on CT-550 cells. As to the kind of experiment: flow cytometry on CT-550 cells. The method, then:
as §4
(§8) In order to determine the binding EC50 of ILT70019, ILT70028, ILT70052, ILT70076, ILT70080, ILT70083, ILT70089, ILT70100, ILT70137, ILT70142 and ILT70144 on cells expressing human ILT7, the candidates were screened for binding on CT-550 cells by flow cytometry. ILT70080 (EC₅₀=0.28 nM), ILT70083 (EC₅₀=0.37 nM), ILT70137 (EC₅₀=0.41 nM), ILT70144, ILT70142, ILT70052, and ILT70100 bound to human ILT7-expressing cells. […] The anti-ILT7 antibodies 7C7 (7C7 is described above in Example 1) and SBI33 (SBI33 refers to the anti-ILT7 antibody ILT7#33 provided in U.S. Published Application No. 2009/0280128) were used as positive controls.

The target of assay [16] is T3, human ILT7. Kind of assay: FACS on CHO cells expressing recombinant human ILT7; reference antibody of the comparison.
In assay [17] the target is T1, cynomolgus ILT7. As to the kind of experiment: FACS on CHO cells expressing recombinant cyno ILT7; reference antibody of the comparison.
The target of assay [18] is T2, HA-tagged human ILT7 on CT-550 cells. As to the kind of experiment: flow cytometry on CT-550 cells expressing human ILT7, anti-human IgG DyLight 649 detection; table 'Mean Ec50 (nM)', n = 2. The procedure: as §4, §8
In assay [19] the target is T1, cynomolgus ILT7. Kind of assay: FACS on CHO cells expressing recombinant cyno ILT7.
The target of assay [20] is T3, human ILT7. Kind of assay: FACS on CHO cells expressing recombinant human ILT7.
Assay [21] concerns the target T4, recombinant human ILT7 protein. Kind of assay: SPR on ProteOn, purified IgG on rILT7.
Assay [22] addresses T1, cynomolgus ILT7. As to the kind of experiment: flow cytometry on CynoILT7 CT-125 cells expressing cynomolgus ILT7, anti-human IgG DyLight 649 detection; table 'Mean Ec50 (nM)', n = 2. The method, then: as §4, §7

T3 sequence (P59901 24-499): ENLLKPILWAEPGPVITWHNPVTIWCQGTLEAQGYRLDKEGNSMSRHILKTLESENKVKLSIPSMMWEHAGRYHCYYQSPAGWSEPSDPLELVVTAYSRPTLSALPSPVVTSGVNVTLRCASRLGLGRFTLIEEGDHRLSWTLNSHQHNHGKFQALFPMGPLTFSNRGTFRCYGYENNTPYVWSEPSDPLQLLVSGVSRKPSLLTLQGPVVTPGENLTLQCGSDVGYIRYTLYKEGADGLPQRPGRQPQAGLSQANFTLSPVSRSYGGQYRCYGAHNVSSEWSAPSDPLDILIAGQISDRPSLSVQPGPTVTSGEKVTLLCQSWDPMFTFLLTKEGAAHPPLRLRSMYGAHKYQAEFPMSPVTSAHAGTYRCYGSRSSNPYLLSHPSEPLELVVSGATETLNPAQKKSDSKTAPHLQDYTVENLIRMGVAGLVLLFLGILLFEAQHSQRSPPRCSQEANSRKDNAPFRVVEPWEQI
T2 sequence (P59901 24-499): as above
T4 sequence (P59901 24-446 limits assumed): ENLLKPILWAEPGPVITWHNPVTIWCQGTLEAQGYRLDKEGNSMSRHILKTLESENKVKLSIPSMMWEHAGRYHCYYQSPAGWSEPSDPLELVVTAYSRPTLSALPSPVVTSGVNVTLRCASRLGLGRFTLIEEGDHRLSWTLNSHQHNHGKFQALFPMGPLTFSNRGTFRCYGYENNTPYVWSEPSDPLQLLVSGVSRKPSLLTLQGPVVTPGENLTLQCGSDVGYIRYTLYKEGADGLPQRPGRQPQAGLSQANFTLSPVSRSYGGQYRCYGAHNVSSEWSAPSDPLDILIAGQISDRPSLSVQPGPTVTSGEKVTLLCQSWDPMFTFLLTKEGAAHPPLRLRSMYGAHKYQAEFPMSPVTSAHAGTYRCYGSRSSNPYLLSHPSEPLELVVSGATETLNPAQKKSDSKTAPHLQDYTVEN
T1 sequence (P59901 other isoform, or with tags, fused parts or gaps limits assumed): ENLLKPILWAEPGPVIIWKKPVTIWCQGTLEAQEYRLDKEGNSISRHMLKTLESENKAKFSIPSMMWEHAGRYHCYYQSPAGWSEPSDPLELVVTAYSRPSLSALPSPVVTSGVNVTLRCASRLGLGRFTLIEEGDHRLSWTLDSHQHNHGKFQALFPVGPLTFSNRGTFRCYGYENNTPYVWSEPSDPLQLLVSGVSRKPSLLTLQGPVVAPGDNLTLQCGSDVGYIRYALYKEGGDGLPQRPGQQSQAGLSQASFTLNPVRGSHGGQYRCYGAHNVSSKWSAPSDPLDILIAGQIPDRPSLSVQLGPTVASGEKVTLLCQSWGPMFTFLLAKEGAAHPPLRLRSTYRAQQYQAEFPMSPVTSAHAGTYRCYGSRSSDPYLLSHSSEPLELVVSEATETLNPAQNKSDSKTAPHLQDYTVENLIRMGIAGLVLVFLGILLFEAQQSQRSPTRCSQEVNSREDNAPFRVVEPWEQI

B1: ILT70089 (antibody, V domains shown)
VH: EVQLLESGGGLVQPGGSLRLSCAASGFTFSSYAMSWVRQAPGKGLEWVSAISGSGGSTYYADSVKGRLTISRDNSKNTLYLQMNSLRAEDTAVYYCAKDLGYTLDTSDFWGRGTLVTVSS
VL: SYVLTQPPSASGSPGQGVTISCSGSSSNIGTNTVNWYLHVPGTAPKLLTYTNNQRPSGVQDRFSGSKSDTSASLAISGLQAEDEGDYYCATWDDSLNGLAFGGGTKLTVL
Turning to B1, the binding result (with cynomolgus ILT7 [1]; in [2]; with human ILT7 [3]) was “binds” each time.

B2: afucosylated IgG1 ILT70137 (antibody, V domains shown)
VH: QVQLQQSGAEVKKPGASVKVSCKASGYTFTSYGISWVRQAPGQGLEWMGWISAYNGNTNYAQKLQGRVTMTTDTSTSTAYMELRSLRSDDTAVYYCARNGLWGWDSDAFDIWGRGTLVTVSS
VL: QSALTQPASVSGSPGQSITISCTGTSSDVGGYNYVSWYQQHPGKAPKLMIYDVSNRPSGVSNRFSGSKSGNTASLTISGLQAEDEADYYCSSYTSSSTVVFGGGTKVTVL
modifications: afucosylated (made as in Example 7: lacks the α-1,6 fucose moiety on the N-glycan at Asn-297 of the heavy chain)
notes: also called afucosylated ILT70137; Afuc IgG1 ILT70137
In general, Kd refers to the free concentration of one partner at which half of the binding sites on the other are occupied at equilibrium, for simple one-to-one binding. In general, EC50 refers to the midpoint of the concentration-response curve. A word on the koff: it is the first-order rate constant of dissociation. Broadly, the kon is the second-order rate constant of association. Consider B2, for which the Kd in [4] was 171 nM. The “ADCC EC50” value was 0.00189 nM in the assay with cynomolgus ILT7 [5] and 0.00419 nM with human ILT7 [6]. In addition, the EC50 with human ILT7 [7] turned out to be 0.303 nM; with cynomolgus ILT7 [8], 2.15 nM. Moreover, in assay [9], the koff is 0.0318 s⁻¹. Also, in [9], the on-rate constant (kon) amounted to 186000 M⁻¹ s⁻¹.

B3: ILT70080 (antibody, V domains shown)
VH: QVQLVQSGAEVKAPGTSVKVSCKASGDSFRNYAVSWVRQAPGQGLEWMGAMMPSFGTREHSQQFNGRVTLSADESTSTAYLELSSLRYDDTAVYYCAGSRDYNAYHFWTGPPDFWGRGTLVTVSS
VL: SYELTQPPSVSVAPGKTAKISCGGDSVGSTSVHWYQQKPGQAPVMVMFYNSDRPSGIPERFSGSISGNTATLTISRVEAGDEADYYCQVWDTSSDHPEFGGGTKLTVL
notes: also called ITL70080
Take B3: the EC50 is 0.41 nM with cynomolgus ILT7 [10]; 0.3 nM in [11]; 0.547 nM in the assay with cynomolgus ILT7 [12]; 0.44 nM in the assay with cynomolgus ILT7 [14]; 0.28 nM and 0.213 nM in assay [15]. Moreover, the “ADCC EC50” value with cynomolgus ILT7 [5] was 0.008 nM and 0.006 nM; in assay [13] it was 0.022 nM and 0.013 nM.

B4: SBI28ch (antibody, V domains shown)
VH: QVQLQQSGAELVKPGASVKMSCKAFGYTFTTYPIEWMKQNHGKSLEWIGNFHPYNDDTKYNEKFKGKAKLTVEKSSSTVYLELSRLTSDDSAVYYCARGDDYGMDYWGQGTSVTVSS
VL: DIVMTQSQKFMSTSVGDRVSITCKASQNVRTAVAWYQQKPGQSPKALIYLASNRHTGVPDRFTGSGSGTDFTLTISNVQSEDLADYFCLQHWNYPFTFGSGTKLEIK
notes: also called chimeric SBI28; ILT7#28
B4: the binding result with human ILT7 [16] and with cynomolgus ILT7 [17] was “binds” throughout.

B5: 7C7 (antibody, V domains shown)
VH: EVQLVESGGGVVQPGRSLRLSCAASGFTFSIYPIEWVRQAPGQGLEWIGNFHPYNDDTKYNEKFKGRVTMTTDTSTSTVYMELSSLRSEDTAVYYCTRGDDYGLDYWGQGTLVTVSS
VL: NIQMTQSPSSLSASVGDRVTITCDASQNVRTAVAWYQQKPGKAPKRLIYLASNRHTGVPSRFSGSGSGTDFTLTISSLQSEDFATYYCLQHWNYPFTFGPGTKLEIK
notes: also called anti-ILT7 clone 7C7
As for B5, the EC50 worked out at 1.3 nM in assay [18] and 8.34 nM with cynomolgus ILT7 [22]. The “fold better EC50 than SBI28ch” value in the assay with cynomolgus ILT7 [19] turned out to be 14 fold; in the assay with human ILT7 [20] it was 2.2 fold. Further, the “fold KD improvement over SBI28ch” value in [21] is approximately 60 fold.
